Test: label from the status in PepcDB records

Sequence: MRGSVAALLLAAGRSIRMGRCKQLLPLGNTTVLGRCLDTLRRGGVGEIAVVVSADGEQVARAAAGHGVRVVVNPDREGDMASSVRAGRDAFGSAVGGVIVSLCDQPLVAAGTVARLRDRHATEPGRIIIPTHGGRRGHPLLFPLPVLAELEDGLTLRDLVVCDPARVCCVAVADPGILIDMDTPEDYRHVCRLMAPQEGLSLRLEHHHHHH
- protein production: failed

Sequence: SGCRCCKIIQSYLFDPVQVPSPGYVNEVNSCKLDEDDTDKLKGKWSSEVLVQKNDPQRQGSKKTESSSRTADPWEPCWPHQGPLPQGDAGGEHHACGVNGIGPAATPQPTGNSSPTQDDRGSWASTANTVPPTQPFLEGGGTRKQDCVLLASEGTQVMRNGDSRAPSEAESFALEVQDHVFQIPAPDYLQHWGPAGDNVDHNEKDCVFKNHTEDESLEGIQPPVGEHGLNTPFSVRRSWDSLNEDVETEVLSICFNEKGPVHAMPVVDSGNRQEDTHGSDGDGDGEIVDEDAAVAEALAALEAATAGEDLDETD
- protein production: not failed

Sequence: MSVPTTMFRLTGRDYPPAKLSHASLIIIDAQKEYLSGPLKLSGMDEAVANIARLLDAARKSGRPIIHVRHLGTVGGRFDPQGPAGQFIPGLEPLEGEIVIEKRMPNAFKNTKLHETLQELGHLDLIVCGFMSHSSVSTTVRRAKDYGYRCTLVEDASATRDLAFKDGVIPAAQIHQCEMAVMADNFACVAPTASLI
- protein production: not failed

Sequence: MKFDVIIIGGSYAGLSAALQLGRARKNILLVDAGERRNRFASHSHGFLGQDGKAPGEIIAEARRQIERYPTIHWVEGRVTDAKGSFGEFIVEIDGGRRETAGRLILAMGVTDELPEIAGLRERWGSAVFHCPYCHGYELDQGKIGVIAASPMAIHHALMLPDWGETTFFTNGIVEPDADQHALLAARGVRVETTRIREIAGHADVVLADGRSIALAGLFTQPKLRITVDWIEKLGCAVEEGPMGSTIVTDPMKQTTARGIFACGDVARPAGSVALAVGDGAMAGAAAHRSILFPEMR
- protein production: not failed

Sequence: MAFITGAARGQGRSHAVRLAAEGADIIACDICAPVSASVTYAPASPEDLDETARLVEDQGRKALTRVLDVRDDAALRELVADGMEQFGRLDVVVANAGVLSWGRVWELTDEQWDTVIGVNLTGTWRTLRATVPAMIEAGNGGSIVVVSSSAGLKATPGNGHYSASKHGLTALTNTLAIELGEYGIRVNSIHPYSVETPMIEPEAMMEIFARHPSFVHSFPPMPVQPNGFMTADEVADVVAWLAGDGSGTLTGTQIPVDKGALKY
- protein production: failed

Sequence: MARILKKNKNELLDILEDYMTDCKYRDLRRTTIRAYEQSLRLLFKFLEDDYKVIYVEDVKEEHIRNYIDFTKERGKYSYVANENNINSNVPQNRGDFGKKVSLCTLDNYLGNIKMFFTWCKDNKLISKDPSFKIKRIKYSRKAKAEITIDEFNKLLKSLDLTLFSEYRDYIVIQLLMDTGMRVGECLELREEDIDIRNKTIFISGEIAKGRRDRYVFFSNTMQRMLQKWLNYKDRYVESNYIFVTNRGGKYQVHSFEKHMRNYLKKAKIDKQITPHTLRNNFAKRFLMSGGDIYTLSRLLGHSDIRTTQSAYLDLTTSDIRKNYLKFSPLENMKKKNW
- protein production: failed

Sequence: MLSTNKFAVLAFATFVAFQAPAHAEDAVVAKVGNLEIHQSELDLAVANLDPQLAQLPDDQKKVAALSAAIDVKLLAAGATTEKLEQTDEFKKRMQYLTDRELHNAYFKKHVVDTVTPDEIKARYDKEVAALPKQEEVHARHILVKTEDEAKDIIKQLDAGKDFAELAKEKSTDPNKSEGGDLGYFSRGRMVKEFEDAAFALEKGAYSKTPVKTDFGYHVIKVEDKRDAPPPPFDQVQDQVRQLVMRDKYLALLNQAKSSAKIEISDETLRKGYDEANKQPEPGSEPPQPAPKQ
- protein production: failed

Sequence: MHAINFIQDLAVIMLVAGVVTILFHRLRQPVVLGYIVAGFIIGPHTPPVSLIHDEDTIKILAELGVIFLMFCLGLEFSLRKLFKVGATAFIAAFLEIALMIWIGYEIGQFFGWKTMDSLFLGAILAISSTTIIVKALNDLKMKNQHFAQLIFGVLIVEDILGIGIIALLSGIAVSGSVSSGEVFSTVGKLSLFMIVALVVGILLVPRLLSYVARFDSNEMLLITVLGLCFGFCLLVVKLEYSMVLGAFLIGAIMAESRELLKIERLIEPIRDMFSAIFFVAIGLMIDPKILLEYAWPIAVITVAVVLGKMISCGLGAFIAGNDGRTSLRVGMGLSQIGEFSFIIAALGMTLQVTSDFLYPVAVAVSAITTLLTPYLIRGADPLSLKLAAIMPRRVARVFGMYGEWLRSIQPQGQSAVLAGMIRRILLQVGVNLALVMAIFFSGGYFAERLGGYMDEWVADVSHQKAWICGAALLLSLPFLIAAYRKLKALSMLLAEMGVKPEMAGRHTVRVRKVVAEVIPLLSLVVIFVMLAALSASILPANELLLVVVLVAALVAALLWRWLIRVHTRMQIALLETLGNNQESSGH
- protein production: failed

Sequence: MSDRRAPLVLEVDGVRHPLTPPGLTIGRGSDADIRINDPGISRLHARINVWPQGNDIGLSIEDLDSTNGVTVNGVKVTSTELGDGSRIEIGSTRMLVHSPTRILEHHHHHH
- protein production: failed

Sequence: MIIIKNGALVTPQGLRRADLAMEGDKIVRIAAAIEPGEDDTVQDATDCWVFPGFIDGHTHMQCWTGMDWTADSFETGTRAAVCGGTTTIVDYATADRGVTMPDALVEWHHRADGTCTANYAFHMALAEWNERNRADLSAMREAGVSSFKTYFAYDHLRLDDAETLEVLEELKRVGGILCVHCENGTLVNALQKRVFEQGIHGPEGHALSRPDVCEGEAVSRLLYLAHLAGDAPVNVVHLSTKLGLEAIRAAKARGQKNIYVETCPQYLMLDDTCYLEQGEDGFAGAKYVMSPPLRHAGDRAALREALVAGEIDTIATDHCSFNLHGQKDRGRDDFRAIPNGGPGVEHRPVAIATSFEGQLGPEDLCRLMSENPARVFGMYPRKGCLAEGADADVCVWDPQARWTIRAATQHQAVDYTPLEGFEAHGRAKAVFVNGVLAARDGEPTGAQPGRYVPR
- protein production: failed

Sequence: MTIGPLALVISLSQQMCVYLVVAYLLSKTPLFIPLVHVTIRLPHKAACYAIFSLFCIMGTYFGLRIDDSIANTRAIGAVLGGMLGGPSVGLAVGLTGGLHRYSMGGFTALACAISTTAEGLIGGLVHRYLVSRGQTGKLFQPLVVGLVTLFAEVCQMLIIILVARPAVNAVHLVETIALPMLVANSVGAAMFMTILLDRRTMFETQSSVFSAKALKIAARAEGALRSGFNRENSMRVARIIYEETGVGAVAITDRDKILAFIGIGDDHHKPGMAVTSLQTLESIRENRVMYADGNEVAYQCSISPTCPLGAALVIPLVDEGEQVIGTIKLYEPKTRLFSTINRTLGEGVARLLSTQILAGRYEQQRQLLAQSEIKLLHAQVNPHFLFNALNTLSAVIRLDPDHARHLVQSLSTFFRKNLKRTSEQVTLNDEVEQVSAYLEIELARFGDRLSVDFNVPADLGTATLPTFSLQPLVENAIKHGTAQLLGDGRIGVSAERQGGDLVVRVEDNAGLYERRPGGDGLGMNLVDRRIRARYGQGYGLSVECERDVVTRVILRVPFDPSPAGVASPAFEKVGP
- protein production: failed

Sequence: MKLVICIVQDDDAGELIDVLTDKGLRVTKLATTGGFLKAGNTTLMIGVEEKAVDGVIETIEDVCKTRQQVVTSPSPVAGSTGVYVPYPIDVEVGGATIFVVDVDKFIKI
- protein production: failed

Sequence: MELKVWVDGVQRIVCGVTEVTTCQEVVIALAQAIGRTGRYTLIEKWRDTERHLAPHENPIISLNKWGQYASDVQLILRRTGP
- protein production: not failed

Sequence: MSPTSMYIAWGWKDIIPQLPALIHAFQTSEMNTPKMRRLCKFTALPEAMNNIGDRSDVYSFRIFLGTIITVKVSYETLDRLTARHTSLRCYRVACLRIKYAYYTNNNASPGHSFNIKLNIDTGVKGSI
- protein production: failed

Sequence: MTETKPRIAIRYCTQCNWLLRAGWMAQEILQTFASDIGEVSLIPSTGGLFEITVDGTIIWERKRDGGFPGPKELKQRIRDLIDPERDLGHVDRTKHEGLDT
- protein production: not failed

Sequence: MDEKPAITKIISGGQTGADRAALDFAIKHHIPYGGWVPKGRLAEGGRVPETYQLQEMPTSDYSKRTEKNVLDSDGTLIISHGILKGGSALTEFFAEQYKKPCLHIDLDRISIEDAATLINSWTVSHHIQVLNIAGPRAGKDPEIYQATMDLLEVFLA
- protein production: not failed

Sequence: MSYILIVTIAIVIFSLIFDFINGFHDTANAVATAVSTRALTPRRAILLAAVMNFIGALTFTGVAGTITKDIVDPFKLQHGLVVVLAAIIAAIIWNLITWLYGIPSSSSHALIGSIAGAAIASKGSFAVLHYQGFTKIIIVLIISPIIAFCVGYMMYTIVKIVFKNSNLTRTNRNFRFFQIFTAALQSFSHGTNDAQKSMGIITLALIVGNLQDGSNVEPQVWVKVVCATAMGLGTAVGGWKIIKTVGGNIMKIRPANGAAADISSALTIFVASSLHFPLSTTHVVSSSILGVGASNRAKGVKWSTAQRMVVTWVITLPISAVLAAIIYFIIHLFLK
- protein production: failed

Sequence: MEYKLTPSYLLKENMVLACGNILFADDGFSVHVIEKLQELLTEEEKENIALVDAGAGAPQQVLTLIDSEAKTKKIIVVDIIDYGLEPGEIKILTMDDLPKPEHTKVDSHDWPLSTTMYRVFRDAPHEIDFKVVGCQKKYVSEPDVVIELSEEVQNAVDVAVDIVLSELRGKPIN
- protein production: not failed

Sequence: MAANNSIEWRAVCEKFRLAQELSEIESKKDPENNPFRSKYKARDLLKEIHCSLKKIEIEEQGEAGDEADCESSQTADGEPEDGFEKTFTGDSAAGLRAARLAVLQYHLGVNHIETEELSAGELHLMVCMKLIDKCTTTRENVSLFIHVRNQLGILWAGRDEIEKAQGFLEIAETMYLVYMKEDGQPPLDLQDFFVPEGESQSFTGVLQLRSAVLRGESRSQERCRNRARAEYGDGLPAPSEDQQNSIHSGLLQLKW
- protein production: failed

Sequence: IQHATASLIQTNTDQELLVVDVTPSFASLWLVPNINDFHQRHPNIRVKILTGDGAVKNIHGESDLHVRCLPLSTHYEYSQLLCEETLLLIGNTNLPKLSDNQAISHYPFIPQTTRPQLWEQFKQENDLECPITYHSVGFEHFYLACEAVRMEKGLALLPDFMAQFSILRGDIQHIGNLKLHSGYGYYVVIPNFRLTSRKVALFHDWLKDKLTHHT
- protein production: not failed

Sequence: MKKLTSLFPLLFLIPLLASCAEEKQVYIVYFGEHKGDKAFHEIEEHHHSYLQSVKESEEDARASLLYSYKHSINGFAAELTPDQASKLEKLAEVVSVFKSHPRKYEAHTTRSWEFVGLEEEETDSDVPRRKNDADDRFRVGRNFLKKAKHGDGIIVGVLDSGVWPESKSFNDKGMGPVPKSWKGICQTGVAFNSSHCNRKIIGARYYVKGYERYYGAFNATANKDFLSPRDPDGHGSHTASTAVGRRVLGASALGGFAKGSASGGAPLARLAIYKACWAKPNAEKVEGNICLEEDMLAAIDDAIADGVHVISISIGTTEPFPFTQDGIAMGALHAVKRNIVVAASAGNSGPKPGTLSNLAPWIITVGASTLDRAFVGGLVLGNGYTIKTDSITAFKMDKFAPLVYASNVVVPGIALNETSQCLPNSLKPELVSGKVVLCLRGAGSRIGKGMEVKRAGGAGMILGNIAANGNEVPSDSHFVPTAGVTPTVVDKILEYIKTDKNPKAFIKPGKTVYKYQAAPSMTGFSSRGPNVVDPNILKPDITAPGLYILAAWSGADSPSKMSVDQRVAGYNIYSGTSMSCPHVAGAIALLKAIHPKWSSAAIRSALMTTAWMTNDKKKPIQDTTGLPANPFALGSGHFRPTKAADPGLVYDASYRAYLLYGCSVNITNIDPTFKCPSKIPPGYNHNYPSIAVPNLKKTVTVKRTVTNVGTGNSTSTYLFSVKPPSGISVKAIPNILSFNRIGQKQRFKIVIKPLKNQVMNATEKGQYQFGWFSWTDKVHVVRSPIAVSLA
- protein production: failed
